Measurements from IntAct's records for PubMed 18477474.

B1: Ras-related protein Rab-38 (Mus musculus), Q8QZZ8 (parent)
chain: MQTPHKEHLYKLLVIGDLGVGKTSIIKRYVHQNFSSHYRATIGVDFALKVLHWDPETVVRLQLWDIAGQERFGNMTRVYYREAMGAFIVFDVTRPATFEAVAKWKNDLDSKLTLPNGKPVSVVLLANKCDQGKDVLMNNGLKMDQFCKEHGFVGWFETSAKENINIDEASRCLVKHILANECDLLESIEPDIVKPHLTSPKVVSCSGCAKS
partner: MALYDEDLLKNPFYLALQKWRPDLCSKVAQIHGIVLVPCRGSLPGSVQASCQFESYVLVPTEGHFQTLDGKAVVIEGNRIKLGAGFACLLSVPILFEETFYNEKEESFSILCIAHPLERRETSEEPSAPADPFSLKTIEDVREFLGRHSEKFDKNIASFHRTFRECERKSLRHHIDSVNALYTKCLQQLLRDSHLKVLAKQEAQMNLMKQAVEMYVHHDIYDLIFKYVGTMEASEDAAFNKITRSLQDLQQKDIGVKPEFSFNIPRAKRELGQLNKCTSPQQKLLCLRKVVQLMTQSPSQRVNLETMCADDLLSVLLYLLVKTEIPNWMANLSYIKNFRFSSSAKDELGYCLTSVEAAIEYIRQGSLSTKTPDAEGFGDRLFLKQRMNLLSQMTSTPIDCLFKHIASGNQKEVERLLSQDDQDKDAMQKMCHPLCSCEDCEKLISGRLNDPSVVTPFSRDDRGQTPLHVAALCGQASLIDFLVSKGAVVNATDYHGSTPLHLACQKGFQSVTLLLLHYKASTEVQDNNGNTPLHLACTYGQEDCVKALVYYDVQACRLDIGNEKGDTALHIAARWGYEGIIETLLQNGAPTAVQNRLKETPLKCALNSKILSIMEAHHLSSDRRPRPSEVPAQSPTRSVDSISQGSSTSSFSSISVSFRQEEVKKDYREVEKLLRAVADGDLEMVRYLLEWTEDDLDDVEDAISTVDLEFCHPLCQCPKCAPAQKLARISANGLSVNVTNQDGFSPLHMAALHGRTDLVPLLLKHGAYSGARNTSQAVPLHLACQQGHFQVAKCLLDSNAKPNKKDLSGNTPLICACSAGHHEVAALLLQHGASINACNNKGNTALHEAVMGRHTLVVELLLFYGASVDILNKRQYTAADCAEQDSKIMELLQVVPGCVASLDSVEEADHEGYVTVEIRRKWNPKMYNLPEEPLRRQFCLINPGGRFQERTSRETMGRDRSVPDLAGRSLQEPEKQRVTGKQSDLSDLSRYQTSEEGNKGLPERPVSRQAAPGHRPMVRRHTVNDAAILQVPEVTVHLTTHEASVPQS

Variants of: B1
Conditions: with anr27_mouse Ankrd27, Q3UMR0

Variant | effect of a mutation on the interaction
MQTPHKEHLYKLLVIGDLGVGKNSIIKRYVHQNFSSHYRATIGVDFALKVLHWDPETVVRLQLWDIAGQERFGNMTRVYYREAMGAFIVFDVTRPATFEAVAKWKNDLDSKLTLPNGKPVSVVLLANKCDQGKDVLMNNGLKMDQFCKEHGFVGWFETSAKENINIDEASRCLVKHILANECDLLESIEPDIVKPHLTSPKVVSCSGCAKS [T23N] | disrupting interaction
